Data as given in publication PMC6108177 (Nature structural & molecular biology, 2017).

Assays:
[1] = biological target: Human TRF1 TRFH domain (residues 65–267) (human) (UniProt P54274); assay: ITC
crystal structure = biological target: the molecule itself; assay: crystal structure

Kd [1]	Molecule	stoichiometry N (crystal structure)
5.6 µM	Human TERB1 TBM (TRF1-binding motif, residues 642–656) (from UniProt Q8NA31-1 642-656) (peptide)	
	Human TRF1 TRFH domain (residues 65–267) (domain or fragment, UniProt P54274 65-267, looked up) GLVAEAEAVAAGWMLDFLCLSLCRAFRDGRSEDFRRTRNSAEAIIHGLSSLTACQLRTIYICQFLTRIAAGKTLDAQFENDERITPLESALMIWGSIEKEHDKLHEEIQNLIKIQAIAVCMENGNFKEAEEVFERIFGDPNSHMPFKSKLLMIISQKDTFHSFFQHFSYNHMMEKIKSYVNYVLSEKSSTFLMKAAAKVVESK	2
